Data on six substances can be found in patent publication US20260085338A1.

In assay [1] the target is phi15 RNA polymerase (Pseudomonas phage phi15). The assay can be described thus: cell-based or functional assay.
The target in assay [2] is P. putida RNA polymerase (Pseudomonas putida). The assay can be described thus: cell-based or functional assay.

Substance Pf-10 lysozyme (enzyme) returned a decrease in msfGFP output (leakiness of the phi15 RNAP; P. putida, 4 mM Rha) in assay [1] of 84%.
For Phi15 GP16 RNA polymerase inhibitor, the cell growth (OD600) of P. putida after induction with 10 mM Rha in assay [2] stood at 1.4 OD600.
On to “phi15 lysozyme (AA1-9>Pf-10 (AA1-10)) (enzyme)”, for which the leaky expression (msfGFP; P. putida, 5 mM Rha) (nM 5(6)-FAM/OD600) in assay [1] turned out to be 23.
On to phi15 lysozyme (G3R) (enzyme), for which the leaky expression (msfGFP; P. putida, 5 mM Rha) (nM 5(6)-FAM/OD600) in assay [1] is 57.
In assay [1], phi15 lysozyme (G3RQ) (enzyme) showed a fold induction (FITC-A of +RNAP,-lys against -RNAP,+lys), P. aeruginosa of 130 fold; a fold induction (FITC-A of +RNAP,-lys against -RNAP,+lys), P. putida of 9.64 fold; an induced (%) cells with FITC-A above 10^4, P. aeruginosa, -RNAP +lys of 5.94%; an induced (%) cells with FITC-A above 10^4, P. putida, -RNAP +lys of 66.7%. In assay [1], this substance returned a leaky expression (msfGFP; P. putida, 5 mM Rha) (nM 5(6)-FAM/OD600) of 11; a leaky expression from the phi15 RNAP (msfGFP; P. aeruginosa, 5 mM rhamnose) (5(6)-FAM/OD600) of 29; a leaky expression from the phi15 RNAP against the wild-type phi15 lysozyme (P. aeruginosa, 5 mM rhamnose) of 13 fold lower; a median FITC-A, flow cytometry, P. aeruginosa, -RNAP +lys (5 mM Rha) of 527 FITC-A. In assay [1], this substance came in with a median FITC-A, flow cytometry, P. putida, -RNAP +lys (5 mM Rha) of 12700 FITC-A.
In assay [1], phi15 lysozyme (wild-type) (enzyme) registered a fold induction (FITC-A of +RNAP,-lys against -RNAP,+lys), P. aeruginosa of 7.36 fold; a fold induction (FITC-A of +RNAP,-lys against -RNAP,+lys), P. putida of 4.1 fold; an induced (%) cells with FITC-A above 10^4, P. aeruginosa, -RNAP +lys of 77.5%; an induced (%) cells with FITC-A above 10^4, P. putida, -RNAP +lys of 80%. Moreover, in assay [1], the leaky expression (msfGFP; P. putida, 5 mM Rha) (nM 5(6)-FAM/OD600) turned out to be 122; the leaky fluorescence with lysozyme induced (P. putida, 4 mM Rha) (nM 5(6)-FAM/OD600) was found to be 77; the median FITC-A, flow cytometry, P. aeruginosa, -RNAP +lys (5 mM Rha) amounted to 33400 FITC-A; the median FITC-A, flow cytometry, P. putida, -RNAP +lys (5 mM Rha) came to 17800 FITC-A.
